According to article PMC6805999, “Molecular Mechanism of SR Protein Kinase 1 Inhibition by the Herpes Virus Protein ICP27” (mBio, 2019):
Values joined by “and” are separate entries in the source; they are usually repeats but may differ in a detail not shown here. Equal entries are not always repeated.

Legend:
[1] = target: SRPK1; conditions: determined using in vitro phosphorylation assays; read-out: dissociation constant (Kd) of SRSF1 RS domain binding to SRPK1; cited from earlier work
[2] = target: T1, endogenous SRPK1 (Homo sapiens, UniProt Q96SB4); experiment: Coimmunoprecipitation of endogenous SRPK1 with ICP27 (anti-ICP27 IP, Western blot anti-SRPK1); type: cell-based; conditions: HeLa cells transfected with ICP27 plasmid, infected with 27-LacZ for 8 h
T1 construct: endogenous in cells; host or cells: HeLa cells
T1 sequence (Q96SB4 whole entry): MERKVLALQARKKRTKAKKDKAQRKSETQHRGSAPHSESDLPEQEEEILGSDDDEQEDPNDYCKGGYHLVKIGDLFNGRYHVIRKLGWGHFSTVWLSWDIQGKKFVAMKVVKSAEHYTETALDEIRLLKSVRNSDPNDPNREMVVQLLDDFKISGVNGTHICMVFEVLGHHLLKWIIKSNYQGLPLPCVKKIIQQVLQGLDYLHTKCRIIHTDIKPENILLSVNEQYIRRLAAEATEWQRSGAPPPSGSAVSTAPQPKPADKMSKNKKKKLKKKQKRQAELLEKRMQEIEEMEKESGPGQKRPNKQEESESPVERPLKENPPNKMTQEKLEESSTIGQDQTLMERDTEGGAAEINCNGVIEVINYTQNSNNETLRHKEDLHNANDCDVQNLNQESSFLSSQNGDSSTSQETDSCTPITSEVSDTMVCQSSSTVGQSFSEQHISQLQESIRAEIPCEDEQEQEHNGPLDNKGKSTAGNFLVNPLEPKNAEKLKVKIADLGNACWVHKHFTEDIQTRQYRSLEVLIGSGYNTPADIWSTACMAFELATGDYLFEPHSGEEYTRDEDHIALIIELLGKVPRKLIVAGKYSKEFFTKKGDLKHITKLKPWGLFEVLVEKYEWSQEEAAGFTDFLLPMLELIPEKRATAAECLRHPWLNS
Excerpt: (§1) ICP27 mutants were constructed to target sites within the RGG box that contact SRPK1 in the crystal structure. Arginines at positions 142, 144, 146, and 148 were changed to glycine (G) as single (R142G, R146G, or R148G), double (R142G R146G), and quadruple (R142G R144G R146G R148G) substitutions. The ICP27 mutant plasmids were cotransfected with a plasmid expressing green fluorescent protein (GFP)-SRPK1 and subsequently infected with ICP27 null mutant virus 27-LacZ to recapitulate the conditions of infection. At 8 h after infection, lysates were immunoprecipitated with anti-GFP antibody, and samples were analyzed by Western blotting and probed with antibody to ICP27 (Fig. 5A). […] ICP27 interaction with endogenous SRPK1 was also analyzed. Cells were transfected with WT and ICP27 mutant plasmids and infected with 27-LacZ as described above. Immunoprecipitation was performed with anti-ICP27 antibody and the blots were probed with antibody to SRPK1 (Fig. 5B). SRPK1 was only coimmunoprecipitated with WT ICP27 and was not detected with any of the mutants.
(§2) HeLa cells cotransfected with GFP-SRPK1 and WT ICP27 or RGG box mutants were infected for 8 h with 27-LacZ. Immunoprecipitation was performed using anti-GFP antibody. Western blots were probed with anti-GFP or anti-ICP27 antibody and anti-β-actin as a loading control. […] GFP fluorescence was visualized directly. […]

[3] = tested on: SRPK1 phosphorylation of SR proteins; experiment: In vivo SR protein phosphorylation analysis (Western blot, antiphosphoepitope SR antibody); type: cell-based; conditions: HeLa cells cotransfected with GFP-SRPK1 and ICP27 plasmid, infected with 27-LacZ for 8 h
Method: (§3) HeLa cells cotransfected with GFP-SRPK1 and WT ICP27 or RGG box mutants were infected for 8 h with 27-LacZ. Immunoprecipitation was performed using anti-GFP antibody. Western blots were probed with anti-GFP or anti-ICP27 antibody and anti-β-actin as a loading control. (B) HeLa cells transfected with WT and ICP27 RGG box mutants were infected with 27-LacZ for 8 h. Immunoprecipitation was performed with anti-ICP27 antibody. Western blots were probed with anti-SRPK1 or anti-ICP27 antibody as indicated and anti-β-actin as a loading control. (C) RSF cells were transfected with GFP-SRPK1 and 16 h later were mock infected, infected with WT HSV-1 or 27-LacZ, or were cotransfected with GFP-SRPK1 and WT ICP27 or ICP27 RGG box mutants and infected 16 later with 27-LacZ. Cells were fixed 6 h later and immunofluorescent staining was performed with anti-ICP27. ICP4 antibody was used to stain the 27-LacZ sample to mark the nucleus. GFP fluorescence was visualized directly. The panels shown are representative of ∼80% of cells visualized. (D) HeLa cells were transfected with GFP-SRPK1 and WT ICP27 or RGG box mutants and were infected with 27-LacZ 16 h after transfection for 8 h. Portions of cell lysates were fractionated by SDS-PAGE, and Western blots were probed with antiphosphoepitope SR antibody, anti-SF2 (SRSF1), anti-ICP27 antibody, and anti-lamin B1 antibody as a loading control. […]

[4] = tested on: GFP-SRPK1; experiment: Immunofluorescence: cellular localization of GFP-SRPK1; type: cell-based, rabbit skin fibroblasts (RSF); conditions: RSF cells cotransfected with GFP-SRPK1 and ICP27 plasmid, infected with 27-LacZ, fixed 6 h later; representative of ∼80% of cells
Method: as §3, with “h.” for “h. Portions of cell lysates were fractionated by SDS-PAGE, and Western blots were probed with antiphosphoepitope SR antibody, anti-SF2 (SRSF1), anti-ICP27 antibody, and anti-lamin B1 antibody as a loading control.”
In immunofluorescence experiments, rabbit skin fibroblasts (RSF) were transfected and/or infected as indicated in the legend to Fig. 5. […] GFP fluorescence was viewed directly. […]

[5] = target: T2, GFP-SRPK1 (Homo sapiens, UniProt Q96SB4); experiment: Coimmunoprecipitation of ICP27 with GFP-SRPK1 (anti-GFP IP, Western blot anti-ICP27); type: cell-based; conditions: HeLa cells cotransfected with GFP-SRPK1 and ICP27 plasmid, infected with 27-LacZ for 8 h
T2 construct: expressed in transfected cells; host or cells: HeLa cells, infected with HSV-1 27-LacZ
T2 sequence (Q96SB4 whole entry): as above
Excerpt: as §1, §2

Row | Molecule | Kd [1] | coimmunoprecipitation of endogenous SRPK1 with ICP27 [2] | level of phosphorylation for SRp40 (SRSF5) reduced [3] | phosphorylation of SRp30 (SRSF1) reduced [3] | cellular localization of SRPK1 [4] | coimmunoprecipitation of ICP27 with GFP-SRPK1 [5]
1 | SRSF1: prototype SR protein, native cellular substrate of SRPK1 | ~0.05 µM and 0.05 µM | – | – | – | – | –
2 | WT ICP27: full-length wild-type HSV-1 protein ICP27 expressed from plasmid (protein) MATDIDMLIDLGLDLSDSDLDEDPPEPAESRRDDLESDSSGECSSSDEDMEDPHGEDGPEPILDAARPAVRPSRPEDPGVPSTQTPRPTERQGPNDPQPAPHSVWSRLGARRPSCSPEQHGGKVARLQPPPTKAQPARGGRRGRRRGRGRGGPGAADGLSDPRRRAPRTNRNPGGPRPGAGWTDGPGAPHGEAWRGSEQPDPPGGQRTRGVRQAPPPLMTLAIAPPPADPRAPAPERKAPAADTIDATTRLVLRSISERAAVDRISESFGRSAQVMHDPFGGQPFPAANSPWAPVLAGQGGPFDAETRRVSWETLVAHGPSLYRTFAGNPRAASTAKAMRDCVLRQENFIEALASADETLAWCKMCIHHNLPLRPQDPIIGTTAAVLDNLATRLRPFLQCYLKARGLCGLDELCSRRRLADIKDIASFVFVILARLANRVERGVAEIDYATLGVGVGEKMHFYLPGACMAGLIEILDTHRQECSSRVCELTASHIVAPPYVHGKYFYCNSLF | – | coimmunoprecipitated | reduced | reduced | prominently nuclear | efficiently coimmunoprecipitated
